This is an account of results in article PMC6160764 (Theranostics, 2018).

For this assay, the target named is Recombinant human HER3-Fc chimera protein (Homo sapiens, UniProt P21860). The experiment in a line: BLI.
Sequence of Recombinant human HER3-Fc chimera protein (P21860 20-643, change not shown): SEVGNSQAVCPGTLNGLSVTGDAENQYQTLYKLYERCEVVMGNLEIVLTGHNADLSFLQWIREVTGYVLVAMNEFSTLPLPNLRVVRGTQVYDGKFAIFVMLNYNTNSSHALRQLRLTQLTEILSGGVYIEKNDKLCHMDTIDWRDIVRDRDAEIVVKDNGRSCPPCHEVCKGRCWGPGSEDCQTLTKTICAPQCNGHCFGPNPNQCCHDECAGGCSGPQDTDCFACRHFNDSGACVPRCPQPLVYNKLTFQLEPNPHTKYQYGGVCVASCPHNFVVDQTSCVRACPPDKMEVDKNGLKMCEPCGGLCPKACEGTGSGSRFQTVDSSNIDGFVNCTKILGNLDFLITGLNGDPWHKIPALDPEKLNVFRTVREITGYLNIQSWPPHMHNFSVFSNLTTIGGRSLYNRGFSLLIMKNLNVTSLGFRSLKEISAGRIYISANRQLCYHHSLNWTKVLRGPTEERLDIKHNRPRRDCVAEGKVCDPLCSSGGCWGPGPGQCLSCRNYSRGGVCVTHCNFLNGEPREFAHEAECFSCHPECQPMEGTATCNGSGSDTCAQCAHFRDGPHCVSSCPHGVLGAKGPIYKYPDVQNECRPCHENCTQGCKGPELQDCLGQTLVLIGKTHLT

B1: anti-HER3 scFv (scFv, V domains shown)
VH: not shown
VL: DIQMTQSPSSLSASVGDRVTITCRASQGISNYLAWYQQKPGKAPKLLIYAASSLQSGVPSRFSGSRSGTDFTLTISSLQPEDFATYYCQQYGWLPLTFGQGTKVEIK
As to B1, the Kd is 20 ± 1.4 nM.

B2: IRDye800CW-labeled anti-HER3 scFv (scFv, V domains shown)
VH: not shown
VL: B1 VL
On to B2, for which the Kd was 29 ± 3.7 nM.
